# Laboratory results: patent US20100119506A1, “Effectors of PAR-2 Activation and Their Use in the Modulation of Inflammation” (BOEHRINGER INGELHEIM INTERNATIONAL GMBH, priority 2008, published 2010)
# Entries after “also recorded” stand apart in the source; their conditions may differ.
# Columns and labels:
# [1] = target: T1, PAR-2 (Homo sapiens, UniProt P55085); experiment: Trypsin induced calcium response (FLIPR) in A549 cells; assay type: cell-based; set-up: expressing endogenous PAR-2; endogenous in cells; host or cells: A549; conditions: A549 cells
# T1 sequence (P55085 26-397): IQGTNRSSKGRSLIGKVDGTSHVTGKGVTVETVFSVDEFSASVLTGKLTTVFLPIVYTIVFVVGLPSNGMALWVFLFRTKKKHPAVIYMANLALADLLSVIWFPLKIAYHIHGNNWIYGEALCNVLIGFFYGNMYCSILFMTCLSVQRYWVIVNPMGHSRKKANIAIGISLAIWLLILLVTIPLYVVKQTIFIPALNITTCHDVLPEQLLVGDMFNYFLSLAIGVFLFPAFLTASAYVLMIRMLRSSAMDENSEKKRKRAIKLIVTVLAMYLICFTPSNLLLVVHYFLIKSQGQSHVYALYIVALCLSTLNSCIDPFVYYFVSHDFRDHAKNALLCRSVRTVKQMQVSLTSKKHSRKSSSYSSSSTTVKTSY
# Description: Using A549 cells, PAR-2 activation was measured by detecting the calcium response following trypsin stimulation. Fabs were tested in this assay for their ability to inhibit this response. […] Antibody concentrations are expressed as μg/ml (FIG. 6).
# Thrombin activates PAR-1, whereas PAR-2 is activated by trypsin in A549 cells.
# [2] = tested on: labeled peptide representing the N-terminus of PAR-2; experiment: FRET-based PAR-2 peptide cleavage assay (trypsin); assay type: biochemical
# Description: (§1) To assess the ability of antibody Ab3777 to block trypsin mediated cleavage of the PAR-2 N-terminus, antibodies were tested in a FRET assay that measures an increase in fluorescence upon cleavage of a labeled peptide representing the N-terminus of PAR-2. […] To assess the ability of antibodies to block trypsin mediated cleavage of the PAR-2 N-terminus on cells, HEK transfectants over-expressing FLAG-tagged PAR-2 were treated with trypsin in the presence or absence of Ab3777 dHLX bivalent Fabs. Activation of PAR-2 results in cleavage/internalization of the receptor resulting in a loss of the FLAG epitope as detected by an antibody in a flow cytometry assay (FIG. 3).
# Affinity matured and cross-cloned antibodies in the IgG4_Pro format were evaluated for cell binding, inhibition of trypsin induced calcium responses in a FLIPR assay, inhibition of PAR-2 peptide cleavage in a FRET assay and inhibition of PAR-2 cleavage in a cell based assay system. All candidates show excellent apparent affinity (EC50) for PAR-2 transfected cells and maximal efficacy and potency in all short term cellular assays (Table 4).
# [3] = target: T2, FLAG-tagged PAR-2 (Homo sapiens, UniProt P55085); experiment: FLAG-PAR-2 cell-based cleavage assay (flow cytometry); conditions: dHLX bivalent Fab; trypsin 30 nM, 5 minutes
# T2 construct: expressed in transfected cells; host or cells: HEK
# T2 sequence (P55085 26-397): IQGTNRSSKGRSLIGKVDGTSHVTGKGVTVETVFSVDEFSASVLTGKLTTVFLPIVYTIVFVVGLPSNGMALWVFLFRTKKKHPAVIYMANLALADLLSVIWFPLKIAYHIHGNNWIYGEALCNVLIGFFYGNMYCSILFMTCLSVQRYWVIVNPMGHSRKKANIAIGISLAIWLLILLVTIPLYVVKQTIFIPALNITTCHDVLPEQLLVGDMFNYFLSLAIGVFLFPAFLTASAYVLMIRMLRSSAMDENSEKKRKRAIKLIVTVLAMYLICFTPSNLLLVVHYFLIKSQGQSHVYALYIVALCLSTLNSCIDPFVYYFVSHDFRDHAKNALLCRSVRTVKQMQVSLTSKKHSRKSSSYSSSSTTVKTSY
# Description: as §1, with “Activation of PAR-2 results in cleavage/internalization of the receptor resulting in a loss of the FLAG epitope as detected by an antibody in a flow cytometry assay (FIG. 3).” left out
# Detection of the FLAG-tag on the cell surface correlates with inhibitory activity.
# [4] = target: PAR-2; experiment: Affinity for PAR-2 in phage display selection and affinity maturation; assay type: binding; conditions: initial selection, Fab
# Text: Antibody phage display techniques were employed to pan for antibodies (Fab fragments) capable of immunospecifically binding to residues spanning the protease cleavage site at the N-terminal of PAR-2. […] The sequences of the heavy (IgG4) and light (lambda) chain variable regions of the antibody Ab3777 are presented below (CDR residues are underlined): […]
molecule,measurement,setting,value
"Ab3777: parental anti-PAR-2 antibody from phage display; light chain SEQ ID NO:6, heavy chain SEQ ID NO:7 (antibody, V domains shown, Antibody identified via phage display) VH: QVQLVESGGGLVQPGGSLRLSCAASGFTFSSYAMNWVRQAPGKGLEWVSTISYSSSATSYADSVKGRFTISRDNSKNTLYLQMNSLRAEDTAVYYCARIQNDPMDVWGQGTLVTVSS VL: DIELTQPPSVSVAPGQTARISCSGDNLGKKYVQWYQQKPGQAPVLVIYDDSNRPSGIPERFSGSNSGNTATLTISGTQAEDEADYYCSSWDVGSDGWVFGGGTKLTVLGQ",activity in trypsin induced calcium response assay (in words),[1]; IgG1 format,active but weaker
same,inhibition in trypsin induced calcium response assay (in words),[1]; bivalent Fab format,partial dose-dependent inhibition
same,activity in trypsin induced calcium response assay (in words),[1]; monovalent format,not active
same,inhibition of trypsin cleavage of PAR-2 peptide (in words),[2],partial inhibition; also recorded: partially block this cleavage in a transient manner
same,inhibition in cellular cleavage assay (in words),[3],partial inhibition
same,Kd,[4],65 nM
